Assay results published in patent publication US20060239966A1.

B1: Neurturin secreted from cells transfected with the dpro-NTN construct (wt NTN signal peptide fused to human mature NTN, no pro-region) (ligand)
chain: ARLGARPCGLRELEVRVSELGLGYASDETVLFRYCAGACEAAARVYDLGLRRLRQRRRLRRERVRAQPCCRPTAYEDEVSFLDAHSRYHTVHELSARECACV
B2: Neurturin secreted from cells transfected with the IgSP-NTN construct (mouse immunoglobulin heavy chain signal peptide fused to human mature NTN) (ligand)
chain: ARLGARPCGLRELEVRVSELGLGYASDETVLFRYCAGACEAAARVYDLGLRRLRQRRRLRRERVRAQPCCRPTAYEDEVSFLDAHSRYHTVHELSARECACV

Tests used:
[1] = target: GFRα2/Fc fusion protein (R&D Systems); test: GFRα2 ELISA: GFRα2/Fc on anti-human Fc plate, Ret-AP detection; conditioned medium of transfected ARPE-19 cells
[2] = target: GFRα2/Fc fusion protein (R&D Systems); test: GFRα2 ELISA: GFRα2/Fc on anti-human Fc plate, Ret-AP detection; conditioned medium of transfected CHO cells
[3] = target: GFRα2/Fc fusion protein (R&D Systems); test: GFRα2 ELISA: GFRα2/Fc on anti-human Fc plate, Ret-AP detection; conditioned medium of transfected HEK293 cells
[4] = target: GFRα2/Fc fusion protein (R&D Systems); test: GFRα2 ELISA: GFRα2/Fc on anti-human Fc plate, Ret-AP detection; conditioned medium of transfected HiB5 cells

| Binder | fold higher GFRα2 binding activity of conditioned medium (wt construct set to 1) [1] [fold] | fold higher GFRα2 binding activity of conditioned medium (wt construct set to 1) [2] [fold] | fold higher GFRα2 binding activity of conditioned medium (wt construct set to 1) [3] [fold] | fold higher GFRα2 binding activity of conditioned medium (wt construct set to 1) [4] [fold] |
| --- | --- | --- | --- | --- |
| B1 | 117 | 4.1 | 90 | 7.5 |
| B2 | 771 | 66 | 278 | 162 |
